The values below come from patent US20120039865A1, “IDENTIFICATION OF SORTILIN AS A NEURONAL RECEPTOR FOR THE FRONTOTEMPORAL DEMENTIA PROTEIN, PROGRANULIN” (Yale University, priority 2008, published 2012).

For assay [1], the target named is T1, sortilin-1 (Sort1; PGRN-R) (Mus musculus, UniProt Q6PHU5).
T1 construct: host or cells: COS-7 (ATCC No. CRL-1651)
T1 sequence (Q6PHU5 74-825): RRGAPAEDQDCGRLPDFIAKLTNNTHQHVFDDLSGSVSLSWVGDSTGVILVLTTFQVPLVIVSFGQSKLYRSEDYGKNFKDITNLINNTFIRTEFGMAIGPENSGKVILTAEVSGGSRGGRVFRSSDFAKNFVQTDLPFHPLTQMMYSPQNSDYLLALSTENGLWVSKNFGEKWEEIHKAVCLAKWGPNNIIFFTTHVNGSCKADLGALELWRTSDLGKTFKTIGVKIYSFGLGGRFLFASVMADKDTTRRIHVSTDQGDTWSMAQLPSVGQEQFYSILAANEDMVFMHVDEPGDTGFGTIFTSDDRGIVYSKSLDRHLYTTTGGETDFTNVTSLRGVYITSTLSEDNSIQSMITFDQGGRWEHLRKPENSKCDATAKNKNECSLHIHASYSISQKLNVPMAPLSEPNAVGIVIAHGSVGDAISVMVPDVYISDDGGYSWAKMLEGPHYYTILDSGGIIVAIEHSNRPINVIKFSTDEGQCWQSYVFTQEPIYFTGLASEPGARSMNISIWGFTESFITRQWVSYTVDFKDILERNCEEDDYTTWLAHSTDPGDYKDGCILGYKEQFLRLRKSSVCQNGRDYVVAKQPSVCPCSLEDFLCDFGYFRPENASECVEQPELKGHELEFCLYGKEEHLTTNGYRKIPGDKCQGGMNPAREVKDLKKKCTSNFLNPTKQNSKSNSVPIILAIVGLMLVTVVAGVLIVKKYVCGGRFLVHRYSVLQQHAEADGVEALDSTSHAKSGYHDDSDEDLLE
The experiment in a line: AP-PGRN binding to COS-7 cells transfected with Sort1 cDNA. On the procedure: (§1) Rat (Sprague-Dawley) cortical neurons were isolated from E18 embryos and cultured in vitro for 3-21 days. Cultures were maintained in Neurobasal-A medium supplemented with B27, GLUTAMAX™ (2 mM), sodium pyruvate (1 mM), penicillin, and streptomycin. The binding of 10 nM AP-PGRN or 10 nM AP was detected as a dark reaction product produced by alkaline phosphatase (AP). Binding was measured as follows. The AP tagged ligand (in NBA) was incubated with the cortical neurons for 1 hr at 4° C., washed three times with HBH buffer, fixed with formaldehyde, and after washing again with HBH the neurons were incubated in a 67° C. oven to inactivate the endogenous AP. The tagged AP was then visualized using AP substrate 5-bromo-4-chloro-3-indolyl phosphate/nitro blue tetrazolium, which results in a dark precipitate. […] The addition of 100 nM Flag-PGRN displaced 10 nM AP-PGRN (FIG. 1C, middle panel).
To determine the molecular nature of the neuronal binding site of PGRN, expression cloning experiments utilizing AP-PGRN as a tagged ligand were conducted. COS-7 (ATCC No. CRL-1651) cells were transfected with expression vectors containing mouse cDNAs using FUGENE® 6 according to manufacturer's specifications (Roche). […]

The next assay has as its target T2, SorCS1 (Mus musculus, UniProt Q9JLC4).
T2 construct: host or cells: COS-7
T2 sequence (Q9JLC4 34-1167): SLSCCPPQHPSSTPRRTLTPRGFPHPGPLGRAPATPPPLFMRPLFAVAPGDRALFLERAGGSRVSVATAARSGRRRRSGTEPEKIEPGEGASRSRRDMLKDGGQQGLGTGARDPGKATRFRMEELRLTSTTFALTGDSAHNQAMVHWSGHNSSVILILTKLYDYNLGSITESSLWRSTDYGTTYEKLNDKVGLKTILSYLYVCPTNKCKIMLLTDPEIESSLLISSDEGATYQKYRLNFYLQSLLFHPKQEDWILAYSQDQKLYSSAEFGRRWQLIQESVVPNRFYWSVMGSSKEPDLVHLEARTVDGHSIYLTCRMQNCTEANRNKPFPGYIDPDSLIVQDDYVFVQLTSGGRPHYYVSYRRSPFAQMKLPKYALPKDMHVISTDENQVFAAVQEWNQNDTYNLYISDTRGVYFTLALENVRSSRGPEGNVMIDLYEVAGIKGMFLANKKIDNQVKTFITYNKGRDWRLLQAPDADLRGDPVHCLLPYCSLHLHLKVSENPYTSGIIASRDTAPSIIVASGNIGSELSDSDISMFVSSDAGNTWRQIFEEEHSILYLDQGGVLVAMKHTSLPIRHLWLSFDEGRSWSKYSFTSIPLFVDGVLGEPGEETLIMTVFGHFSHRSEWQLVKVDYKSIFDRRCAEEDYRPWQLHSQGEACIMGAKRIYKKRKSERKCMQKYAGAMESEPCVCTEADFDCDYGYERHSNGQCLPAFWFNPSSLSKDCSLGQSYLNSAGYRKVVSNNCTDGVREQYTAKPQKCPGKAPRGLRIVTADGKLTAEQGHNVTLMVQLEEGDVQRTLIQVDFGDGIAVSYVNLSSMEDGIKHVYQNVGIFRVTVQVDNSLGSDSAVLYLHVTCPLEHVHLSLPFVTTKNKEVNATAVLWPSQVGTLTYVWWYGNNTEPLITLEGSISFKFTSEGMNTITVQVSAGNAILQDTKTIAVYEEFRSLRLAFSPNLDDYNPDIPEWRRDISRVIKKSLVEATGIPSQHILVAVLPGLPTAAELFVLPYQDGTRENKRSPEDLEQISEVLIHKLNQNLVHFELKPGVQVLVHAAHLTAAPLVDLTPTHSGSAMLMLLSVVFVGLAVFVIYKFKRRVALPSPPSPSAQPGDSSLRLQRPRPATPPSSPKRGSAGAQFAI
The assay is described as follows: AP-PGRN binding to COS-7 cells expressing SorCS1. The following applies: 120 nM AP-PGRN. The text has this:
(§2) The human SorLA expression vector was provided by Anders Nykjaer, M.D., Ph.D., Aarhus University, Aarhus, Denmark (Jacobsen, L., et al., J. Biol. Chem. 276:22788-22796 (2001); Gliemann, J., et al., Biochem J. 381:203-212 (2004); GenBank Accession No. U60975), and the mouse SorCS1 expression vector in pCMV-Sport6 was obtained from Open Biosystems (GenBank Accession No. BC007486). […] A fragment of PGRN, termed PGRN-E in the literature, binds to sortilin with the same affinity as does full length PGRN (data not shown).

Assay [2] has as its system COS-7 cells transfected with empty vector. The assay is described as follows: AP-PGRN binding to COS-7 cells transfected with empty vector. As to conditions: 20 nM AP-PGRN. On the procedure: To determine the molecular nature of the neuronal binding site of PGRN, expression cloning experiments utilizing AP-PGRN as a tagged ligand were conducted. COS-7 (ATCC No. CRL-1651) cells were transfected with expression vectors containing mouse cDNAs using FUGENE® 6 according to manufacturer's specifications (Roche). An arrayed adult mouse brain cDNA library (OriGene) of 225,000 clones was screened in pools of 5,000 at a time, as well as a library consisting of 352 individual preparations of cDNAs encoding transmembrane proteins (GFC-transfection array panel, OriGene). The COS-7 cells that specifically bound AP-PGRN (5 nM) contained a single cDNA clone, which encoded a single-pass, membrane-spanning surface glycoprotein that supports high affinity AP-PGRN binding (FIG. 2A, upper-right panel). […] As in mouse cortical neurons, binding of 5 nM AP-PGRN to Sort-1 (PGRN-R) in COS-7 cells was displaceable by excess untagged PGRN (100 nM) and was saturable, with an apparent Kd of 6 nM (FIG. 2A, lower-right panel, and 2B). The binding affinity of AP-PRGN measured for Sort1-transfected COS-7 cells and for neurons was indistinguishable, with a Kd of 5-10 nM (FIG. 2B, 6 nM, and data not shown). In both cases, unlabeled 100 nM PGRN displaced binding (FIG. 2A, lower-right panel, and FIG. 3A, right panel).

In assay [3] the test system is mouse E17 cortical neurons. The experiment in a line: AP-PGRN binding to mouse cortical neurons (wild type, sortilin +/- and -/-). As for the experimental part:
as §1
Binding was measured according to the methods described above by preincubating 100 nM PGRN with the cortical neurons for 1 hr and using a 5 nM AP-PGRN and 100 nM untagged PGRN mixture. […]
Gene-targeted sortilin −/− and +/− mice from Anders Nykjaer, M.D., Ph.D., Aarhus University, Aarhus, Denmark, were used to obtain cultures of cortical neurons. The binding of 2 nM AP-PGRN to cortical neurons isolated from sortilin −/− (FIG. 3B, left panel) and +/− (FIG. 3B, right panel) mice was evaluated. […]

Assay [4] deals with Rat (Sprague-Dawley) cortical neurons. The experiment in a line: AP-tagged ligand binding to cultured rat cortical neurons. On the procedure: as §1
The next assay concerns the target T3, SorLA (Homo sapiens, UniProt Q92673).
T3 construct: host or cells: COS-7
The experiment in a line: AP-PGRN binding to COS-7 cells expressing SorLA. The following applies: 120 nM AP-PGRN.
From the text: as §2

Assay [5] concerns the target T4, purified ectodomain of Sort1 (amino acids 60-725 of the human sequence) (Homo sapiens, UniProt Q99523).
T4 sequence (Q99523 60-725): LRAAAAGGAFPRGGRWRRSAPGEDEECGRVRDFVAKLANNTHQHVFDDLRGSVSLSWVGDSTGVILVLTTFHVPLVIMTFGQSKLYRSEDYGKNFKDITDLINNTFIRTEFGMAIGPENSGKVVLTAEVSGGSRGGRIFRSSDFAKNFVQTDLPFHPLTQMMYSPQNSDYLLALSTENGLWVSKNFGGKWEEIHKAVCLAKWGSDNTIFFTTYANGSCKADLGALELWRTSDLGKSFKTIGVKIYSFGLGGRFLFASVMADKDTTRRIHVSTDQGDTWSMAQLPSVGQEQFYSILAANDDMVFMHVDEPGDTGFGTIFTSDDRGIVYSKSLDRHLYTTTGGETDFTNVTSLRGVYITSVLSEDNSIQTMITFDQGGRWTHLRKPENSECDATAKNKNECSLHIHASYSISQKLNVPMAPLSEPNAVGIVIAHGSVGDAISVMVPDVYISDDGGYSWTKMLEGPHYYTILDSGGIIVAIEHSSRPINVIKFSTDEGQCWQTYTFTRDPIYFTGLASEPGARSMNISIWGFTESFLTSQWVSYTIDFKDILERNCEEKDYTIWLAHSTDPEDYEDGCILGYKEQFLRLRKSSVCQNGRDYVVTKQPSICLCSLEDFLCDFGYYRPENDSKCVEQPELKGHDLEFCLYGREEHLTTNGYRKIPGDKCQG
The assay is described as follows: Physical complex of purified proteins isolated by affinity chromatography. Format: binding. The following applies: data not shown.

T3 sequence (Q92673 82-2214): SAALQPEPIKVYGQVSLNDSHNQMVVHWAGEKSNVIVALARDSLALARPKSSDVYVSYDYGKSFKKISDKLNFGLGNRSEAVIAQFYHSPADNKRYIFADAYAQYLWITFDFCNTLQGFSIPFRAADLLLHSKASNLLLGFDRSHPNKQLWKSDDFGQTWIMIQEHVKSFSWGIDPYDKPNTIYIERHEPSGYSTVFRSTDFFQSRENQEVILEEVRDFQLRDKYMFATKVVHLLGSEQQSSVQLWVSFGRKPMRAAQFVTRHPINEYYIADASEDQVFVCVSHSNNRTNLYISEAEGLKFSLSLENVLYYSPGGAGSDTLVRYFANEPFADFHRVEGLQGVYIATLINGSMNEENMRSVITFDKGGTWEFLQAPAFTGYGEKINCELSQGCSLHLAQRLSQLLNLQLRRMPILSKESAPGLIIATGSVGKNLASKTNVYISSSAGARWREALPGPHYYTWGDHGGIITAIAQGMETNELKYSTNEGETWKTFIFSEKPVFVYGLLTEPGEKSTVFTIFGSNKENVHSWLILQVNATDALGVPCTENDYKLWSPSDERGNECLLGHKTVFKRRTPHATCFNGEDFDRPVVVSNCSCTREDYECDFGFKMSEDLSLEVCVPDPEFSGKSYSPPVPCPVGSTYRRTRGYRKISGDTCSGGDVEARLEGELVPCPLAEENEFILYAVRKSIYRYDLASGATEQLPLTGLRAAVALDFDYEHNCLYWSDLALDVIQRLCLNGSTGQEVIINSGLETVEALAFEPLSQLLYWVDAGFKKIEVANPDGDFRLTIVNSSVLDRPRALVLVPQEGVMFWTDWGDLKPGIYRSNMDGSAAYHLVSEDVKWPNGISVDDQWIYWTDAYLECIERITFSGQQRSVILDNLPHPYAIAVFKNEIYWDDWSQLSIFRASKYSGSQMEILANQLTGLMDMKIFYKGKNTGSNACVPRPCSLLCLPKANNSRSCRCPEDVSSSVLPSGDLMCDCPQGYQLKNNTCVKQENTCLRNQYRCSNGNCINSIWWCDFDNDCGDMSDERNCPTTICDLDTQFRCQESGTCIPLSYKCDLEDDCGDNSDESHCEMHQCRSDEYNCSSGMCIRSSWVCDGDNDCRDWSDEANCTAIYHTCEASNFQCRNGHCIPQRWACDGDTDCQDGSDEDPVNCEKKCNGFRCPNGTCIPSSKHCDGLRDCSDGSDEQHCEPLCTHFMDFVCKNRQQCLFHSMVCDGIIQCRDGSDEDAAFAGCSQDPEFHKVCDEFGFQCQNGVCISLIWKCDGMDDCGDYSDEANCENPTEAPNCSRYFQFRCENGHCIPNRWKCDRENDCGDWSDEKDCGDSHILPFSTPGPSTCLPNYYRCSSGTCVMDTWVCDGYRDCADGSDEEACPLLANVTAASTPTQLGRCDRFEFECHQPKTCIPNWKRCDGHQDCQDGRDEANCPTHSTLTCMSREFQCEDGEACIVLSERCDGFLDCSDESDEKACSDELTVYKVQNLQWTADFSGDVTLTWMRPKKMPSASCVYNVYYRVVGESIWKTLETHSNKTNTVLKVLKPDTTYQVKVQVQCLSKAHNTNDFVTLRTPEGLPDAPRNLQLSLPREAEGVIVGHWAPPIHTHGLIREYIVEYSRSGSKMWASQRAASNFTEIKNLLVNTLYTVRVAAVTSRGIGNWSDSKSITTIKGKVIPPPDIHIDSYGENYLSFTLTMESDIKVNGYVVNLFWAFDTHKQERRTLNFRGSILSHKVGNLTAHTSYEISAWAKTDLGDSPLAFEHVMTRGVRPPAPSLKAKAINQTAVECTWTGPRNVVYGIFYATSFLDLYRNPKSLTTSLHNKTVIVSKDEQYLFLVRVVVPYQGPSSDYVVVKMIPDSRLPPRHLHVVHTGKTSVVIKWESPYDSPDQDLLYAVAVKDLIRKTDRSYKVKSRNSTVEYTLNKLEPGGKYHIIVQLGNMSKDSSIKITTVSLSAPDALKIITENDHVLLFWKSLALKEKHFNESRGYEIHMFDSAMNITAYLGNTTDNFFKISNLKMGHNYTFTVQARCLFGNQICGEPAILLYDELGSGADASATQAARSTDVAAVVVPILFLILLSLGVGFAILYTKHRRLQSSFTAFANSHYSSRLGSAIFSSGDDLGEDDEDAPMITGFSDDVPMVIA

Broadly, the Kd is the free concentration of one partner at which half of the binding sites on the other are occupied at equilibrium, for simple one-to-one binding. As to “AP-PGRN: alkaline-phosphatase (AP) tagged human progranulin fusion protein produced in HEK293T cells”, in assay [1] (20 nM ligand), the “binding to Sort1-transfected COS-7 cells” value was “bound”. In addition, the Kd in assay [1] (read-out: binding affinity Kd for Sort1-transfected COS-7 cells) lay in the range of 5 to 10 nM; in assay [3] (neurons, species not stated, data not shown, read-out: binding affinity Kd for neurons), 5 to 10 nM. The “affinity for SorCS1” value in the assay with SorCS1 is “no affinity”. For the same substance, the “binding to empty-vector COS-7 cells” value in assay [2] is recorded as “did not bind”. For the same substance, the “AP-PGRN binding in sortilin -/- cortical neurons” value in assay [3] (2 nM AP-PGRN, neurons from sortilin -/- vs +/- mice) was 30 % of control values. In addition, the “binding to cultured cortical neurons (dark AP reaction product)” value in assay [4] (10 nM AP-tagged ligand, 1 hr at 4° C.) was “specifically and discreetly bound”. In addition, in the assay with SorLA, the “affinity for SorLA” value is on record as “no affinity”.
With “Flag-PGRN: FLAG-tagged PGRN produced by HEK293T cell transfection, purified by anti-FLAG affinity gel”, in assay [5], the “complex formation with Sort1 ectodomain” value is “formed a physical complex”. In addition, in assay [4] (100 nM competitor against 10 nM AP-PGRN), the “displacement of AP-PGRN binding” value is reported as “displaced”.
